Test results from US20040077542A1 (University of Texas, published 2004).

Target: T1, GST-fusion protein of the second BIR (baculoviral IAP repeat) motif of XIAP (UniProt P98170 124-240)
T1 construct: also called recombinant IAP fragment; BIR2; not shown: glutathione S-transferase (GST) fusion partner; order of GST and BIR2 not
Test: GST pull-down, radiolabeled peptide on GST-BIR2 glutathione resin (Example 9)

T1 sequence (P98170 124-240): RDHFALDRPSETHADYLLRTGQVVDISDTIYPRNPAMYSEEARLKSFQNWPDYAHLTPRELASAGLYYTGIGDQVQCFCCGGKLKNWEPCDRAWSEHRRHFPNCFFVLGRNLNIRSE

binding result: no binding
Binder: H-KQAIPVA-OH (also called negative control Smac-7R) [Smac-7R: NH2-KQAIPVA-COOH]
